# From paper PMC7938364, “Multimeric antibodies from antigen-specific human IgM^+ memory B cells restrict Plasmodium parasites” (The Journal of Experimental Medicine, 2021)
# B1: MaliM03 m-IgG (antibody, V domains shown)
# VH: QVQLQQWGAGLLKPSETLSLTCAVYGGSFSGYYWTWIRQPPGKGLEWIGEINNSGKTNYNPSLKSRVSISIDTSKNQFSLKVTSVTAADTAVYYCARGPQQHLEPPFDYWGHGTLVTVSS
# VL: QSVLTQPPSASGTPGQRVTISCSGSNSNIATNYVCWYQQYPGTAPKPLIYRTDQRPSGVPDRFSGSKSGTSASLAISGLRSEDEADYYCATWDDSLSAWVFGGGTKLTVL
# notes: VH of MaliM03, as the VH of m1; immunoglobulin gamma-1 heavy chain constant region (vector AbVec-hIgG1) with L309C; human IgM tail piece, 18 amino acids, added to the IgG constant region; as the light chain of m1; Self-assembles into multimers (negative-stain EM); also called multimeric IgG; modified IgG antibody; source: 293T cells, transient transfection, purified from supernatant (HiTrap …)
# Molecular target: T1, recombinant P. falciparum 3D7 MSP1 (p19 fragment) (Plasmodium falciparum (3D7))
# T1 construct: merozoite surface protein 1 of P. falciparum 3D7, the 19 kDa C-terminal fragment (MSP1-19, p19); Coated on ELISA plates and used in solution in the BLI without avidity; The ELISA methods say only 'recombinant P. falciparum MSP1'; also called MSP1-19; merozoite surface protein 1 (the 1-19 fragment)
# T1 chain: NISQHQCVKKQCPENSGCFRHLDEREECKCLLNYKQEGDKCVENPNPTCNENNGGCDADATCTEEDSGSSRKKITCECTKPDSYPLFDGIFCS
# Test: ELISA; plates coated with recombinant MSP1, AMA1 or OVA (each 5 µg/ml in PBS); purified recombinant antibodies at a maximum of 5-50 nM with 10-fold serial dilutions, 2 h room temperature or overnight 4°C; HRP anti-human IgG1
# Settings: both partners purified
binder,measurement,value
B1,fold better binding than its monomeric form,~10 fold
